Laboratory results published in patent US20260193366A1 (APOGEE THERAPEUTICS, published 2026).

T1: hIL-4Rα on cells (human, UniProt P24394 26-825)
T1 sequence: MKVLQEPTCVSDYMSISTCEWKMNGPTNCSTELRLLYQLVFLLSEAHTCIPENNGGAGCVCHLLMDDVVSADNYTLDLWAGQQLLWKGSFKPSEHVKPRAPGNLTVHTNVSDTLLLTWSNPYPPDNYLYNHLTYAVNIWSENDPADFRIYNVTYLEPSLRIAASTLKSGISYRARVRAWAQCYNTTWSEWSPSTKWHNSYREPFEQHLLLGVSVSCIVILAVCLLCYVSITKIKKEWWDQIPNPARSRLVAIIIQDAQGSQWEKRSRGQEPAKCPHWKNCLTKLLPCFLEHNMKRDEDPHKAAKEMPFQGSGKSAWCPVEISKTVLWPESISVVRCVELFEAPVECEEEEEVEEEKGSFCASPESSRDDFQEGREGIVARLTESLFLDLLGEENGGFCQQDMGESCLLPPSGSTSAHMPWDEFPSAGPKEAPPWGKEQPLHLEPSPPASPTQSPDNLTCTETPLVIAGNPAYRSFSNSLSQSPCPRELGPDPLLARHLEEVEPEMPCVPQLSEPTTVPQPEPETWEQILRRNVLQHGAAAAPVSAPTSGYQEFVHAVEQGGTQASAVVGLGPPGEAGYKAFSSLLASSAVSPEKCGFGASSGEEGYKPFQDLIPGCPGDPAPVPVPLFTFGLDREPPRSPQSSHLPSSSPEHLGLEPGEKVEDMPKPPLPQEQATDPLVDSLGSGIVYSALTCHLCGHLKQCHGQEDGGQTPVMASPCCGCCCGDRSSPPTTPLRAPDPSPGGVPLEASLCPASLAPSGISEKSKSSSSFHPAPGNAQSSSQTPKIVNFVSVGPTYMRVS

T2: human IL-4Rα (human, UniProt P24394 26-232)
T2 construct: also called Hu IL-4Rα; hIL-4Rα
T2 sequence: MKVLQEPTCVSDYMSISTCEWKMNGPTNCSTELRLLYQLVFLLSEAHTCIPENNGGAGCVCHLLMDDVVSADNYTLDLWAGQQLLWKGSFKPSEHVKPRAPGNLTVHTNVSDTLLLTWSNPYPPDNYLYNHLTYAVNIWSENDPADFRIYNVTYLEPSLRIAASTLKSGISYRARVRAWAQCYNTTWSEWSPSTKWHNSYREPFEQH

T3: cynomolgus monkey IL-4Rα (cynomolgus monkey, UniProt P24394 26-231 (human entry), limits assumed)
T3 construct: also called Cyno IL-4Rα; cyIL-4Rα
T3 chain: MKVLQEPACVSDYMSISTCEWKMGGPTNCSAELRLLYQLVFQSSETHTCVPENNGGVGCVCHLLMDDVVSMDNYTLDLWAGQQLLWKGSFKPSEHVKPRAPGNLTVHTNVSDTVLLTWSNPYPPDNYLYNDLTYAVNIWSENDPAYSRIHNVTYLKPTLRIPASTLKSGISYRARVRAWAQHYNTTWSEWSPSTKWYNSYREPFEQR


Assays:
hIL-4Rα on cells [1] = molecular target: T1, hIL-4Rα on cells; test: cell-based or functional assay
hIL-4Rα on cells [2] = molecular target: T1, hIL-4Rα on cells; test: cell-based or functional assay; remark: listed apart in the source
hIL-4Rα on cells [3] = molecular target: T1, hIL-4Rα on cells; test: FACS on HEK293 cells, competitor biotin-hIL-4;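 also: HEK293 cells stably co-expressing hIL-13Rα and hIL-4Rα, stained for 1 h at 4 °C, read-out as mean fluorescence intensity by flow cytometry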
hIL-4Rα on cells [4] = molecular target: T1, hIL-4Rα on cells; test: FACS on HEK293 cells, competitor biotin-hIL-13;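 also: stably transduced cells co-expressing both receptor chains, stained cold, with cell-bound signal read as mean fluorescence intensity by flow cytometry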
human IL-4Rα [5] = molecular target: T2, human IL-4Rα; test: KinExA
Experimental: Binding affinity (KD) of exemplary antibodies to human IL-4Rα was determined using the Kinetic Exclusion Assay (KinExA). Briefly, antibody and recombinant human IL-4Rα were equilibrated in solution. […] Samples were incubated for a time period ranging from 3.5 hours to 340 hours, to fully reach equilibrium. Once samples reached equilibrium, azlactone beads previously coated with recombinant human IL-4Rα were used to capture any free antibody from the equilibrated solution. […] The KinExA 4000 instrument was used to capture fluorescent signal and convert to a voltage signal that is directly proportional to the amount of free antibody in all the equilibrated samples, allowing for the determination of the apparent affinity of the antibody.

human IL-4Rα [6] = molecular target: T2, human IL-4Rα; test: SPR, Carterra LSA;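 also: antibodies captured on an anti-human Fc sensor chip, antigen injected at several concentrations, association and dissociation rates fitted with a 1:1 Langmuir model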
cynomolgus monkey IL-4Rα = molecular target: T3, cynomolgus monkey IL-4Rα; test: SPR, Carterra LSA;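 also: antibodies captured on an anti-human Fc sensor chip, antigen injected at several concentrations, association and dissociation rates fitted with a 1:1 Langmuir model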
hIL-4Rα on cells [7] = molecular target: T1, hIL-4Rα on cells; test: cell-based or functional assay; remark: listed apart in the source

Row | Binder | Relative Inhibition of IL-4 induced pSTAT6 IC50 (hIL-4Rα on cells [1]) | Relative Inhibition of IL-13 induced pSTAT6 IC50 (hIL-4Rα on cells [1]) | Relative Inhibition of IL-4 induced TF-1 Proliferation IC50 (hIL-4Rα on cells [2]) | Relative Inhibition of IL-13 induced TF-1 Proliferation IC50 (hIL-4Rα on cells [2]) | Relative Blockade of IL-4 Binding IC50 (hIL-4Rα on cells [3]) | Relative Blockade of IL-13 Binding IC50 (hIL-4Rα on cells [4]) | KD Relative to Dupilumab (human IL-4Rα [5]) | Kd (human IL-4Rα [5]) | KD Relative to Dupilumab (human IL-4Rα [6]) | Kd (human IL-4Rα [6]) | KD Relative to Dupilumab (cynomolgus monkey IL-4Rα) | Kd (cynomolgus monkey IL-4Rα) | Relative Inhibition of IL-4 induced TARC IC50 (hIL-4Rα on cells [7]) | Relative Inhibition of IL-13 induced TARC IC50 (hIL-4Rα on cells [7])
1 | Construct 13 (mAb422) (antibody, IgG4, V domains shown, VH/VL only) VH: EVQLVESGGGLEQPGGSLRLSCAGSGFTFRDFAMTWVRQAPGKGLEWVSSVSGSGGNTYYADSVKGRFTISRDNSKNTLYLQMNSLRAEDTAVYYCAKDRLSVTVRPRYYGLDVWGQGTTVTVSS VL: DIVMTQSPLSLPVTPGEPASISCRSSQSVLYSIGYNYVDWYLQKSGQSPQLLIYLGNKRASGVPDRFSGSGSGTDFTLKISRVEAEDVGFYYCMQSLTSPYTFGQGTKLEIK | 0.415 relative to dupilumab | 0.824 relative to dupilumab | 0.675 relative to dupilumab | 0.794 relative to dupilumab | 1.02 relative to dupilumab | 0.882 relative to dupilumab | 0.267 | 0.299 pM | 0.65 | 7.37 pM | 0.02 | 12600 pM | 0.507 relative to dupilumab | 1.01 relative to dupilumab
2 | Construct 30 (mAb439) (antibody, IgG4, V domains shown, VH/VL only) VH: EVQLVESGGGLEQPGGSLRLSCAGSGFTFRDYAMTWVRQAPGKGLEWVSSISGSGGNTYYADSVKGRFTISRDNSKNTLYLQMNSLRAEDTAVYYCAKDRLSITIRPRYYGLDVWGQGTTVTVSS VL: DIVMTQSPLSLPVTPGEPASISCRSSQSLLYSNRNNYLDWYLQKSGQSPQLLIYSASIRASGVPDRFSGSGSGTDFTLKISRVEAEDVGFYYCMQAFQAPYTFGQGTKLEIK | 1.09 relative to dupilumab | 0.781 relative to dupilumab | 0.387 relative to dupilumab | 0.917 relative to dupilumab | 0.863 relative to dupilumab | 0.958 relative to dupilumab |  |  | 0.98 | 11 pM | 0.2 | 128000 pM | 0.68 relative to dupilumab | 0.592 relative to dupilumab
3 | Construct 32 (mAb446) (antibody, IgG4, V domains shown, VH/VL only) VH: EVQLVESGGGLEQPGGSLRLSCAGSGFTFRDFAMTWVRQAPGKGLEWVSSVSGDGGNTYYADSVKGRFTISRDNSKNTLYLQMNSLRAEDTAVYYCAKDRLSVTVRPRYYGLDVWGQGTTVTVSS VL: DIVMTQSPLSLPVTPGEPASISCRSSQSLLYSNGYNYLDWYLQKSGQSPQLLIYLSSNRASGVPDRFSGSGSGTDFTLKISRVEAEDVGFYYCMQAFQAPYTFGQGTKLEIK | 1.68 relative to dupilumab | 4.76 relative to dupilumab | 1.74 relative to dupilumab | 2.01 relative to dupilumab | 1.36 relative to dupilumab | 1.14 relative to dupilumab |  |  | 1.04 | 11.8 pM | 1.58 | 993000 pM | 4.36 relative to dupilumab | 2.4 relative to dupilumab
4 | Construct 46 (mAb501) (antibody, IgG4, V domains shown, VH/VL only) VH: EVQLVESGGGLEQPGGSLRLSCAGSGFTFRDSAMTWVRQAPGKGLEWVSSISGSGDGTYYADSVKGRFTISRDNSKNTLYLQMNSLRAEDTAVYYCAKDRLSIYIRPRYYGLDVWGQGTTVTVSS VL: DIVMTQSPLSLPVTPGEPASISCTSSQSLLYSIGYNYVDWYLQKSGQSPQLLIYLGNKRASGVPDRFSGSGSGTDFTLKISRVEAEDVGFYYCMQALQTPYTFGQGTKLEIK | 1.04 relative to dupilumab | 3.6 relative to dupilumab | 1.29 relative to dupilumab | 1.28 relative to dupilumab | 1.22 relative to dupilumab | 1.02 relative to dupilumab |  |  | 0.97 | 11 pM | 0.36 | 228000 pM | 2.49 relative to dupilumab | 4.66 relative to dupilumab
5 | Construct 15 (mAb423) (antibody, IgG4, V domains shown, VH/VL only) VH: EVQLVESGGGLEQPGGSLRLSCAGSGFTFRDFAMTWVRQAPGKGLEWVSSISGSGGNIYYADSVKGRFTISRDNSKNTLYLQMNSLRAEDTAVYYCAKDRLSKTIRPRYYGLDVWGQGTTVTVSS VL: DIVMTQSPLSLPVTPGEPASISCTASQSLLYSIGYNYVDWYLQKSGQSPQLLIYLGNKRASGVPDRFSGSGSGTDFTLKISRVEAEDVGFYYCMQSLTSPYTFGQGTKLEIK | 0.285 relative to dupilumab | 0.468 relative to dupilumab | 0.281 relative to dupilumab | 0.71 relative to dupilumab | 0.66 relative to dupilumab | 0.876 relative to dupilumab | 0.01 | 0.0109 pM | 1.21 | 13.7 pM | 0.04 | 24600 pM | 0.453 relative to dupilumab | 0.35 relative to dupilumab
6 | Construct 45 (mAb494) (antibody, IgG4, V domains shown, VH/VL only) VH: EVQLVESGGGLEQPGGSLRLSCAGSGFTFRDFAMTWVRQAPGKGLEWVSSISGSGDGTYYADSVKGRFTISRDNSKNTLYLQMNSLRAEDTAVYYCAKDRVSITIRPRYYGLDVWGQGTTVTVSS VL: DIVMTQSPLSLPVTPGEPASISCTASQSLLYSIGYNYVDWYLQKSGQSPQLLIYLGNNRATGVPDRFSGSGSGTDFTLKISRVEAEDVGFYYCMQSLQTPYTFGQGTKLEIK | 1.25 relative to dupilumab | 4.61 relative to dupilumab | 1.68 relative to dupilumab | 1.79 relative to dupilumab | 1.08 relative to dupilumab | 1.01 relative to dupilumab |  |  | 0.96 | 10.9 pM | 0.31 | 192000 pM | 3.09 relative to dupilumab | 14.5 relative to dupilumab
